The values that follow come from patent publication US20120128678A1 (FORERUNNER PHARMA RESEARCH, published 2012).

Assay [1] concerns the target T1, human TMPRSS11E, endogenous, on cancer cell lines and in clinical cancer tissues (human, UniProt Q9UL52 1-423).
T1 construct: Endogenous protein of h2009, h2087, ME-180 and colo201 cells and of lung, uterine cervix and esophagus cancer tissue sections; also called DESC1
T1 sequence: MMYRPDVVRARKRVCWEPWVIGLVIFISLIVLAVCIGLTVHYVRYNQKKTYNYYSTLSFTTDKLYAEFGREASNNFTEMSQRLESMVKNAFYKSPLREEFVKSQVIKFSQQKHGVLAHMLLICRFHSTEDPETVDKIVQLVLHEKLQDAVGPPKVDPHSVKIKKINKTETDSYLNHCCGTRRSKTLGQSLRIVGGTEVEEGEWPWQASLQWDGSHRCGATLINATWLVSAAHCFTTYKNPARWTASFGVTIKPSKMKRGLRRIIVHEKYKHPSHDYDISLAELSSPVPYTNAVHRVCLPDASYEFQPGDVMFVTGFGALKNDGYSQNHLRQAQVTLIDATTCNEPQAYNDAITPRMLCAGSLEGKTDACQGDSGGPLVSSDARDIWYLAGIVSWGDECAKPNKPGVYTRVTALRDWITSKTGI
As to the kind of experiment: flow cytometry on cancer cell lines h2009, h2087, ME-180, colo201 (FIG. 3). On the procedure:
(§1) The TMPRSS11E-constantly expressing cells thus constructed were evaluated for binding to the parental strain thereof by flow cytometry. The anti-TMPRSS11E antibody diluted to an appropriate concentration was added to cells corresponding to 5×10⁵ and reacted for 1 hour on ice. The cells were washed by centrifugation. Then, FITC-labeled anti-human IgG antibodies were added thereto and reacted for 1 hour on ice. The cells were washed by centrifugation and then suspended in a medium containing 2 μg/mL propidium iodide, and the suspension was applied to FACS Calibur (Becton, Dickinson and Company). […] The chimeric antibodies and low-fucose chimeric antibodies had equivalent avidity. Next, avidity to various cancer cell lines was evaluated by flow cytometry.
(In general: A flow cytometer gives signals particle by particle.)

Assay [2] deals with T2, human TMPRSS11E, full-length, forced expression on cells (DG44, Ba/F3, SK-Hep-1) (human, UniProt Q9UL52 1-423).
T2 construct: also called DESC1; BaF/TMPRSS11E; not shown: C-terminal tag added through the antisense primer
T2 sequence: T1 sequence
As to the kind of experiment: flow cytometry on TMPRSS11E-expressing Ba/F3 cells, FITC anti-human IgG detection (FIG. 2). As for the experimental part:
as §1

For assay [3], the target named is T2, human TMPRSS11E, full-length, forced …. As to the kind of experiment: flow cytometry on TMPRSS11E-expressing SK-Hep-1 cells (FIG. 9).
In assay [4] the target is T3, fusion protein of MBP and TMPRSS11E SEA domain (human, UniProt Q9UL52 42-191).
T3 construct: Expressed in E. coli, purified and immobilized for the screening ELISA; also called fusion proteins of MBP and SEA domains
T3 sequence: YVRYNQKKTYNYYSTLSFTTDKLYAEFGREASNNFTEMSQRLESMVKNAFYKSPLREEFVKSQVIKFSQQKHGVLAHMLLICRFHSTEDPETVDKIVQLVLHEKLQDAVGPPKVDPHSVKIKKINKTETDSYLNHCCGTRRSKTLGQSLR
As to the kind of experiment: screening ELISA on immobilized MBP-SEA domain fusion protein. On the procedure:
This fusion protein was used to immunize Balb/c mice or MRL/lpr mice. Hybridomas were established in the same way as above. New England Biolabs Inc. pMALc2x vectors were used in screening, which was performed by ELISA using fusion proteins of MBP and SEA domains that were expressed in E. coli, then purified, and immobilized on a solid phase. […] The nucleotide sequence of the EA230 heavy chain variable region is shown in SEQ ID NO: 53, and its amino acid sequence is shown in SEQ ID NO: 54. The nucleotide sequence of the EA230 light chain variable region is shown in SEQ ID NO: 55, and its amino acid sequence is shown in SEQ ID NO: 56.
For orientation: In an ELISA, binding on a coated surface is turned into a signal by an enzyme label.

Assay [5] concerns the target T2, human TMPRSS11E, full-length, forced …. As to the kind of experiment: immunoblot of BaF/TMPRSS11E cell lysate, 0.5 ug/mL EA230 (FIG. 7). On the procedure:
(§2) Cell lysates of Ba/F3, TMPRSS11E-expressing Ba/F3 (BaF/TMPRSS11E), a TMPRSS11E-negative cancer cell line VMRC-LCD, and TMPRSS11E-positive cancer cell lines h2009 and ME-180 were prepared. 50 μL of NP-40 Lysis Buffer (0.5% (v/v) Nonidet P40, 20 mM Tris-HCl (pH 7.5), 150 mM NaCl, 5 mM EDTA) was added to 1×10⁶ cells and left at 4° C. for 15 minutes. Then, after centrifugation (14,000 rpm, 15 min), the supernatant was used as lysates. The lysates corresponding to 2×10⁵ cells were separated by SDS-PAGE and then transferred to Immobilon-P (Millipore Corp.) using Trans-Blot SD Semi-Dry Electrophoretic Transfer Cell (Bio-Rad Laboratories, Inc.). The membrane was gently washed with TBS-T (0.05% Tween 20, TBS) and then shaken for 1 hour in TBS-T containing 5% skim milk. After shaking for approximately 10 minutes in TBS-T, 0.5 μg/mL EA230 antibodies diluted with TBS-T containing 1% skim milk were added to the membrane, which was then shaken for 1 hour. […] Since the presumed molecular weight of TMPRSS11E is 47.7 kDa, it seemed that TMPRSS11E that underwent sugar chain modification was probably detected. This means that TMPRSS11E can be detected specifically by immunoblot using EA230.
For orientation: In western blotting, separated proteins are transferred to a membrane and probed.

In assay [6] the target is T1, human TMPRSS11E, endogenous, on cancer …. As to the kind of experiment: immunoblot of lysates of cancer cell lines (h2009, ME-180), 0.5 ug/mL EA230 (FIG. 7). As for the experimental part:
as §2

B1: chi.TM191 (FTKO), low-fucose anti-TMPRSS11E mouse-human chimeric antibody (antibody, human IgG1, kappa, V domains shown)
VH: EVKLVESGGGLVKPGGSLKLSCAASGFTFSDYGMAWVRQAPGKGPEWVAFISNLAYSSYYADTVTGRFTISRENAKNTLYLEMSSLRSEDSAMYYCARRIFDYDGDGPYEDYWGQGTSVTVSS
VL: QIVLTQSPAIMSASPGEKVTLTCSATSSVSSRYVHWYQQKSGASPKLWIYGTSNLASGVPARFSGSGSGTSYSLTISSVEAEDAATYYCQQYHNDPPTFGAGTKLELKR
modifications: sugar chain free from alpha-1,6 core-fucose (produced in CHO_FTKO cells)
notes: also called low-fucose chimeric TM191
For B1, the binding result in assay [1] and in assay [2] was “binds” in each case.

B2: chi.TM191 (DG), anti-TMPRSS11E mouse-human chimeric antibody (antibody, V domains shown)
VH: B1 VH
VL: B1 VL
notes: Human IgG1/kappa constant regions, produced in DG44 CHO cells; also called chimeric TM191
Consider B2, for which the binding result in assay [1] and in assay [2] was “binds” in each case.

B3: TM191 (mouse hybridoma antibody) (antibody, V domains shown)
VH: B1 VH
VL: QIVLTQSPAIMSASPGEKVTLTCSATSSVSSRYVHWYQQKSGASPKLWIYGTSNLASGVPARFSGSGSGTSYSLTISSVEAEDAATYYCQQYHNDPPTFGAGTKLELK
notes: Mouse IgG1 kappa
On to B3, for which the binding result in assay [3] was “binds”.

B4: EA230 (mouse hybridoma antibody) (antibody, V domains shown)
VH: EVKLEESGGALVQPGGSMKLSCVASGFTVSNYWMSWVRQSPEKGLEWVAEVRLKSNNYVTHYAESVKGRFTISRDDSKSSVYLQMNNLRPEDTGIYYCTPFAYWGQGTLVTVSA
VL: QIVLTQSPAILSASPGEKVTLTCSANSSVSSSYLYWHQQKPGSSPKLWIYRTSKLASGVPARFSGSGSGTSYSLTISSMEAEDAASYFCHQWDTYPPTFGGGTKLEIK
Take B4: the binding result in assay [4], in assay [5] and in assay [6] was “binds” in each case.
